Assay [1] deals with T1, SARS-CoV-2 nucleocapsid protein (N), 2X-StrepTag tagged (SARS-CoV-2, UniProt P0DTC9 1-419). Nature of the assay: BLI.
For assay [2], the target named is T1, SARS-CoV-2 nucleocapsid protein (N), …. In words: BLI. This is another data set of the same source.

B1: recombinant human CCL26 (ligand)
chain: TRGSDISKTCCFQYSHKPLPWTWVRSYEFTSNSCSQRAVIFTTKRGKKVCTHPRKKWVQKYISLLKTPKQL
B1: the off-rate (koff) (in general, the rate constant with which the complex falls apart) in assay [1] was 0.00093 s⁻¹. The dissociation constant (Kd) (commonly the concentration at which binding is half-saturated) in assay [2] worked out at 26 nM.

B2: recombinant human CXCL14 (ligand)
chain: SKCKCSRKGPKIRYSDVKKLEMKPKYPHCEEKMVIITTKSVSRYRGQEHCLHPKLQSTKRFIKWYNAWNEKRRVYEE
Take B2: the koff in assay [1] came to 0.0019 s⁻¹. The molecule further showed a Kd in assay [2] of 45 nM.

B3: recombinant human CCL5 (ligand)
chain: SPYSSDTTPCCFAYIARPLPRAHIKEYFYTSGKCSNPAVVFVTRKNRQVCANPEKKWVREYINSLEMS
Molecule B3 returned a koff in assay [1] of 0.00019 s⁻¹.

B4: recombinant human CCL28 (ligand)
chain: SEAILPIASSCCTEVSHHISRRLLERVNMCRIQRADGDCDLAAVILHVKRRRICVSPHNHTVKQWMKVQAAKKNGKGNVCHRKKHHGKRNSNRAHQGKHETYGHKTPY
B4 gave a koff in assay [1] of 0.00087 s⁻¹. Binding in assay [2] was put at a Kd of 22 nM.

B5: recombinant human CCL11 (ligand)
chain: not shown
B5 showed a koff in assay [1] of 0.0045 s⁻¹. For the same molecule, the Kd in assay [2] is 72 nM.

B6: recombinant human CXCL11 (ligand)
chain: FPMFKRGRCLCIGPGVKAVKVADIEKASIMYPSNNCDKIEVIITLKENKGQRCLNPKSKQARLIIKKVERKNF
In assay [1], B6 had an off-rate (koff) of 0.0033 s⁻¹. Besides, in assay [2], binding was characterised by a dissociation constant (Kd) of 130 nM.

B7: recombinant human CCL21 (ligand)
chain: SDGGAQDCCLKYSQRKIPAKVVRSYRKQEPSLGCSIPAILFLPRKRSQAELCADPKELWVQQLMQHLDKTPSPQKPAQGCRKDRGASKTGKKGKGSKGCKRTERSQTPKGP
In the case of B7, the koff in assay [1] was determined as 0.0014 s⁻¹. The Kd in assay [2] turned out to be 14 nM.

B8: recombinant human CXCL4 (ligand)
chain: EAEEDGDLQCLCVKTTSQVRPRHITSLEVIKAGPHCPTAQLIATLKNGRKICLDLQAPLYKKIIKKLLES
In assay [1], B8 gave an off-rate constant (koff) of 0.00053 s⁻¹. Moreover, the dissociation constant Kd in assay [2] stood at 170 nM.

B9: recombinant human CXCL9 (ligand)
chain: TPVVRKGRCSCISTNQGTIHLQSLKDLKQFAPSPSCEKIEIIATLKNGVQTCLNPDSADVKELIKKWEKQVSQKKKQKNGKKHQKKKVLKVRKSQRSRQKKTT
In turn, B9 showed a koff in assay [1] of 0.00085 s⁻¹. The molecule further displayed a Kd in assay [2] of 12 nM.

Source of the values: article PMC8687477 (2021).
